Blank lines part the entries; values can stand above or below the molecule they belong to.
Columns and labels:
[1] = biological target: IL-33 released from CMT-64 cells (mouse (endogenous in CMT-64)) (UniProt Q8BVZ5); experiment: ELISA
[2] = biological target: HpARI1 (Heligmosomoides polygyrus bakeri); experiment: SPR
[3] = biological target: HpARI3 (Heligmosomoides polygyrus bakeri); experiment: SPR
[4] = biological target: HpARI2 (Heligmosomoides polygyrus bakeri); experiment: SPR
[5] = biological target: T1, IL-33 released from CMT-64 cells (mouse (endogenous in CMT-64), UniProt Q8BVZ5 1-266); experiment: ELISA
T1 sequence (looked up): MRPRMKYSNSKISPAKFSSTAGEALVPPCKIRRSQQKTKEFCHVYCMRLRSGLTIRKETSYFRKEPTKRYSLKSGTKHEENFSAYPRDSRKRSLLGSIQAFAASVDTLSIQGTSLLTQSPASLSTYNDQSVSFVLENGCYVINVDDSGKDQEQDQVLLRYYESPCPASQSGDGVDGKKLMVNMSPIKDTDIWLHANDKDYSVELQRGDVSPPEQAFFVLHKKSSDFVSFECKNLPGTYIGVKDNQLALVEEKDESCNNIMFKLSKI

Molecule: HpARI1 (natural protein)
IC50 [1]: 0.8 nM

B1: HpARI3 (natural protein, Heligmosomoides polygyrus bakeri, UniProt A0A183GRJ4 1-248, looked up)
chain: SLGCKFTDVEKDKGYTGMLVGGKRRESAANGQKVELVCGRGNHNYTCKSGILTEESYRQGRCGCEGILQMLLDKPKDSPMYDSVTYDPTPNTPTTVGKDGIWNGVDYRNGSTVRPYCDTGPIINGSPKAVCVSGKWVPKLGDCPKMCSISSLKENGKFLNVTATTTGDELNPRPREQTLIPIVRKVDKDKVQHGVKVVALCKAKYSTTAAENVQKFECDNGKWKPKPVPCS
modifications: chemically biotinylated with EZ-Link Sulfo-NHS-Biotin (for SPR only)
IC50 [5]: ~6 nM

More lines, now with the values ahead:

IC50 [1]: 0.8 nM
Molecule: HpARI2 (natural protein)

Kd [2]: 0.04 nM | Kd [3]: 0.4 nM | Kd [4]: 0.04 nM
Molecule: mouse IL-33 (purified) (from UniProt Q8BVZ5 1-266) (ligand)
